B1: MCRsa1: archaeal malonyl-CoA reductase of Sulfolobales archaeon Acd1, WP_020198954.1 (protein)
chain: MRRTLKAAILGATGLVGIEYVRMLSQHPYIKPAYLAGKGSVGKAYSEVVRWQTVGQVPKEVADMPVLPTDVNEIKKAGVDIVFSPLPQGAAGPVEEEFAKAGFPVISNSPDHRFDPDVPLMIPEVNGHTASLIDEQKKRRDWSGFIVTTPLCTAQGIAIPLAPIYRDFRVDSVFITTMQSLSGEGYPGVASLDVVDNIKVLGDAYDAKTVKEVTRILSEVKRNVPGTMDELTLSATTHRIATIHGHYEVMYVTFKEDVKVEKVKETLANFKGEPQDMKLPTAPSRPILITELDNRPQPYFDRWAGDVPGMSVVVGRLKQVNNRTVRLVSLIHNTVRGAAGGGILVAEYLIEKGYIPK
modifications: Sulfolobales archaeon
B2: AADHbw: eutE type AADH of Bilophila wadsworthia 3_1_6, GenBank EFV45545.1 (protein)
chain: MDVRQQDVERIVVEVLKKMMSDQPTAAATTVVAASGCDCGDFGLFDRLEDAVQAAEAAQKKISTVAMRDKIIAAIRKAGLENAKAFAEIAHNETGMGRVSDKIAKNILVCERTPGTECLSPMAISGDMGLTLIENAPWGVIASVTPSTNPTATVINNAISMIAGGNSVIFAPHPNAKRASQTAIQVLNKAIIEATGVANLLVAVKEPTIEVAQELFSHPRIKLLVVTGGEAVVAQARKVATMRLIAAGAGNPPVVVDETANIARAARSIYDGASFDNNIICADEKEIIAVDSIADQLKAEMKAIGAVEISLEQADAVARVVLRNYPQVEGGKAPNPNPKWVGRDAALIAKAAGIDVPDSCRLLIVDVKRDINHVFARVEQLMPVIPLLRAANVDEAIEWALILERGLSHTAGMHSRNIDNMDKMARAMNTSLFVKNGPHLAALGAGGEGWTTMTISTPTGEGVTCARSFVRLRRCCVVDNFRIV
modifications: AADHbw
B3: AADHvs: eutE type AADH of Vibrio sp. EJY3, GenBank AEX22176.1 (protein)
chain: MNEQEIAHAVENVLSKYTNVTAQNAEPVSYSSNASLENIVSQALAGNMVKQPETQTAPDLNSNIENIVSQILAENQAKPQSVQCQSANHGTTEYLGCFASMEEAISAASHAQVQYRHCTMGDRASFVKGIREVFTQDDVLEKISRMAVEETGMGNYADKLTKNRIAATKTPGIEDLTTSALSGDSGLTLTEFSAYGVIGSITPTTNPTETIINNSIGMLAAGNTVVYSPHPRSRNVSLVAVDLINRKLAELGAPANLVVTVLEPSIDNTNAMMNDPRVNMLVATGGPSIVKTVMSTGKKAIGAGAGNPPAVVDETANIEKAAKDIINGCAFDNNLPCIAEKEVIVVNEVADYLIHCMKKSGAYLLCDKQKIQQLQSLVLNEKGTGPNTSFVGKGARYILDKLNIQVSDDIKVILIETERNHPFVVHELMMPILPVVRVENVDEAIDLAIKVEHGNRHTAIMHSTNVEKLSKMARLIQTTIFVKNGPSYSGIGVGGEGHTTFTIAGPTGEGITSARSFARYRRCVMVEALNIR
modifications: AADHvs
B4: AADHmm: eutE type AADH of Morganella morganii SC01, GenBank EMP53767.1 (protein)
chain: MDQKEIENVVKAVLASMSAGTQPAAASAAPQQAAASQNNGFGVFESLDDAVLAAKEAQKSLKTVEMRNLCIGAIRRAATEHARELAVLAVEETGMGRVEDKLAKNLAQANGTPGVECLRPEVLTGDHGLTLIENAAWGVIASVTPSTNPAATAINNAISMIAGGNSVIFAPHPAAKKVSQRTITILNEAIVAAGGPNNLLVTVAKPDIETAQRLFKYPGIGLLVVTGGDAVVESARKHTNKRLIAAGAGNPPVVVDETADIERAAKAIVHGASFDNNIICADEKVLIAVDCIADKLITEMQRNHAVLLTREQSEKLIPVLLKNVDETGHGTVSRDWVGRDAAKIAAAIGMTVPADTRLLIAETDCKHPFAVTELMMPVLPIIRVKDVDQAIDLAVKLEGGCHHTAAMHSNNISNLNRMANAIDTSIFVKNGPCIAGLGLGGEGWTTMTITTPTGEGVTCARTFVRLRRCTMVDSFRIV
modifications: AADHmm
B5: MCRcc: archaeal malonyl-CoA reductase of Candidatus Caldiarchaeum subterraneum, GenBank BAJ50751.1 (protein)
chain: MKTYSVAILGATGMVGQHYIRMLYRHPWFRITALTGKESVGRKYVEAVRGEAPEPPKEIAEMEVLPTDPKKVDADFVFSCLPTEAAREAEPKFAEAGFPVFSDAAAYRMEEDVPLIVPEINHDHLNMVHIQRKKRGWEGYIVTTPNCTTVGLVLPLQPLKQHLGVKKVIVTTMQAVSGAGYPGVASLSILGNVIPYISGEERKVETETAKILGRYGDGRFTHDSVEVHATCTRVPTLDGHMESIYLETAKPADEETVAELLAEYVSLPQELNLPTAPARPIVVRRELDRPQTRIDVDAGTVPGMSVSVGRIRVNGEKVRFISLSHNLIRGAAGGTILTAELARHMGLLGE
modifications: Candidatus Caldiarchaeum

Legend:
MCR [1] = assay: MCR enzyme assay from yeast cell lysates; format: biochemical; details: NADPH as a cofactor
Experimental: The MCR enzyme activity was measured according to the method described by Chen et al. (2014, Metab. Eng. 22:104-109) with slight modifications. The method is based on monitoring the oxidation of NAD(P)H at 340 nm.
Cells were collected and washed with cold wash buffer containing 20 mM Tris-HCl (pH 7.5), 20 mM NaN3 and then resuspended in 1 mL of breaking buffer containing 50 mM HEPES (pH 7.5), 150 mM KCl, 1 mM DTT, 1 mM EDTA, 0.5% Triton X-100 and 1×EDTA free protease inhibitor cocktail (Roche). The cells were lysed with glass beads in a Precellys 24 homogenizer at 5500 rpm for 3×40 seconds and kept on ice between rounds. Lysates were centrifuged at 16 000 g for 20 min at 4° C. and supernatants were collected. The total protein concentration was determined using the Bradford method.
The MCR assay mixture contained 50 mM Tris-HCl buffer (pH 8.0), 5 mM MgCl2 and 0.3 mM NADPH or NADH. After adding 20 μL of cell lysate into a total reaction volume of 200 μL, the reaction was pre-incubated for five minutes at 30° C. after which the reaction was started by addition of 0.15 mM malonyl-CoA. The assay was monitored at 340 nm with a Thermo Konelab 20XT analyser.
The eight full-length Chloroflexus MCR homologues were truncated into their two functional domains and the MCR-specific domains were assayed for enzyme activity in yeast along with the six archaeal MCRs. […]

MCR [2] = assay: archaeal MCR activity assay in E. coli lysates (microtitre plate); format: biochemical; details: E. coli cell lysate, NADPH or NADH
Experimental: (§1) pBAT T7 promoter based expression constructs were made for four different archaeal MCRs, Metallosphaera sedula (MCRms), Sulfolobus tokodai (MCRst), Candidatus caldiarchaeum (MCRcc), and Sulfolobales archaeon (MCRsa1).
Their activity was analyzed using the following assay conditions: 0.4 mM NAD(P)H; 0.15 mM Malonyl-CoA; Tris-HCl pH 7; 2 mM MgCl2. Assays on 20 times diluted lysates were performed in microtitre plate (MTP) format at RT. The oxidation of NADPHT or NADHT at A^365 in time was followed. […] However, the MCR activities were smaller than that measured for the tagged MCRca.

[3] = SDS-PAGE expression levels of MCR constructs in E. coli lysate
Source text: as §1

AADH = AADH in vitro enzyme activity assay from yeast cell lysates; format: biochemical; details: in vitro, expressed in yeast
Experimental: AADH activity was measured as described by Kozak et al. (2014, Metab. Eng. 21:46-59) by monitoring the reduction of NAD^+ at 340 nm at 30° C. The yeast cells for the cell lysates were collected, washed with water, and then resuspended into lysis buffer containing 100 mM Tris-HCl buffer (pH 7.5) and 1×EDTA free protease inhibitor cocktail (Roche). The cells were lysed with glass beads in a Precellys 24 homogenizer at 5500 rpm for 3×40 seconds and kept on ice between rounds. Lysates were centrifuged at 16 000 g for 20 min at 4° C. and supernatants were collected. The total protein concentration was determined using the Bradford method.
The enzyme assay reaction mixture contained 0.1 mM Coenzyme A, 50 mM CHES buffer (pH 9.5), 0.8 mM NAD^+, 0.2 mM DTT and 10 μL of cell extract in a total reaction volume of 200 μL. The reaction was started by adding 10 mM of freshly prepared acetaldehyde solution and reduction of NAD^+ was followed with a Thermo Konelab 20XT analyser.
Five AADH genes were originally chosen (i.e. ADHEpm, ADHEec, EUTec, EUTdz and LIN1129li) and transformed into the CEN.PK lab strain. These AADHs were expressed from a multicopy plasmid where they were under control of the TEF1 promoter.
Twenty additional novel AADH genes were chosen from the genome mining analyses to be evaluated for expression and enzyme activity in yeast.

[4] = system: S. cerevisiae VSK-128 ACS2 deletion strain; assay: AADH in vivo growth assay, ACS2 deletion strain on glucose-based agar plates; format: cell-based
Source text: All copies of the ACS2 gene were deleted from the industrial S. cerevisiae VSK-128 strain in order to generate a strain with a defective PDH-bypass that was incapable of growth on glucose-based medium. Expression vectors carrying the 25 different AADH variants were then transformed into this ACS2 deletion strain to evaluate their ability to recover the growth of this strain on glucose.
There was a good correlation between the in vitro AADH enzyme activity assays and the in vivo growth recovery analyses.

Molecule | MCR enzyme activity compared to the wild-type strain (MCR [1]) | MCR activity (MCR [2]) | expression level [3] | AADH activity (AADH) | recovery of the growth deficiency of the ACS2-deletion strain [4]
B1 | higher than the wild-type strain | showed the highest MCR activity | highest expression levels | – | –
B2 | – | – | – | shown to have AADH activity | capable of recovering the growth deficiency
B3 | – | – | – | shown to have AADH activity | capable of recovering the growth deficiency
B4 | – | – | – | shown to have AADH activity | capable of recovering the growth deficiency
B5 | – | No activity on NADPH or NADH could be measured | could not be expressed in a soluble form | – | –

From patent US10704064B2, “Recombinant yeast producing 3-hydroxypropionic acid and method for producing 3-hydroxypropionic acid using the same” (SK Innovation Co., Ltd., priority 2014, dated 2020)
